What follows are sequences tested on Escherichia coli TOP10 (assay: shrunken log2 fold change of peptide-encoding DNA abundance (4.5 h post-induction vs induction); higher = less antimicrobial activity (less host growth inhibition)). Conditions: time post-induction: 4.5 h; library: site-saturation at positions 5, 18, 19, 20.
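Also: peptides expressed intracellularly from a pBAD plasmid library in pooled LB shake-flask culture, induced with 0.3% L-arabinose, DNA abundance read by NGS, three biological replicates, DESeq2 with apeglm shrinkage.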

Sequence | shrunken log2 fold change
RRIRCRPPRLPRPRPRPDKSPRP | -1.38
RRIRQRPPRLPRPRPRPPAQPRP | 0.0181
RRIRGRPPRLPRPRPRPAIWPRP | 0.396
RRIRQRPPRLPRPRPRPMWIPRP | -0.146
RRIRGRPPRLPRPRPRPLFYPRP | 0.257
RRIRIRPPRLPRPRPRPEGKPRP | -0.0199
RRIRRRPPRLPRPRPRPIHLPRP | -0.0465
RRIRARPPRLPRPRPRPNISPRP | 0.0983
RRIRVRPPRLPRPRPRPYGQPRP | -0.0728
RRIRTRPPRLPRPRPRPGMIPRP | -0.0261
RRIRERPPRLPRPRPRPHYDPRP | -0.963
RRIRIRPPRLPRPRPRPNQPPRP | -0.0903
RRIRVRPPRLPRPRPRPAWNPRP | 0.219
RRIRTRPPRLPRPRPRPSEHPRP | -0.383
RRIRDRPPRLPRPRPRPPGDPRP | 1.29
RRIRKRPPRLPRPRPRPMPMPRP | 0.00883
RRIRIRPPRLPRPRPRPETPPRP | 0.207
RRIRLRPPRLPRPRPRPSIVPRP | -0.294
RRIRVRPPRLPRPRPRPYVIPRP | -0.189
RRIRLRPPRLPRPRPRPLELPRP | -0.0406
RRIRPRPPRLPRPRPRPNYDPRP | -0.388
RRIRQRPPRLPRPRPRPFYNPRP | -0.739
RRIRHRPPRLPRPRPRPKMKPRP | -0.232
RRIRMRPPRLPRPRPRPHHWPRP | 0.439
RRIRSRPPRLPRPRPRPSCVPRP | -0.152

Sequence | shrunken log2 fold change
RRIRVRPPRLPRPRPRPYAVPRP | -0.481
RRIRWRPPRLPRPRPRPPWTPRP | 0.688
RRIRWRPPRLPRPRPRPRSVPRP | 0.247
RRIRKRPPRLPRPRPRPQKNPRP | 0.319
RRIRVRPPRLPRPRPRPPCPPRP | 0.0333
RRIRKRPPRLPRPRPRPTTSPRP | 0.321
RRIRPRPPRLPRPRPRPVLPPRP | 0.11
RRIRFRPPRLPRPRPRPSCEPRP | -0.619
RRIRLRPPRLPRPRPRPPMAPRP | 0.0265
RRIRRRPPRLPRPRPRPPLMPRP | 0.708
RRIRLRPPRLPRPRPRPIFRPRP | 0.00696
RRIRIRPPRLPRPRPRPVCYPRP | -0.633
RRIRYRPPRLPRPRPRPNPHPRP | -0.639
RRIRPRPPRLPRPRPRPIMKPRP | -0.411
RRIRMRPPRLPRPRPRPSLFPRP | 0.136
RRIRKRPPRLPRPRPRPSHNPRP | -0.351
RRIRNRPPRLPRPRPRPKIYPRP | -0.0429
RRIRYRPPRLPRPRPRPNKVPRP | -0.596
RRIRKRPPRLPRPRPRPAYHPRP | -0.144
RRIRSRPPRLPRPRPRPAFNPRP | 0.0949
RRIRDRPPRLPRPRPRPVKIPRP | -0.101
RRIRNRPPRLPRPRPRPAEAPRP | 0.057
RRIRIRPPRLPRPRPRPFVKPRP | -0.691
RRIRERPPRLPRPRPRPYFRPRP | -0.622
RRIRQRPPRLPRPRPRPAKMPRP | -0.207

Sequence | shrunken log2 fold change
RRIRPRPPRLPRPRPRPLAGPRP | 0.3
RRIRARPPRLPRPRPRPQCWPRP | 0.173
RRIRSRPPRLPRPRPRPYLAPRP | -0.251
RRIRERPPRLPRPRPRPFNYPRP | -0.273
RRIRSRPPRLPRPRPRPNNEPRP | -0.631
RRIRERPPRLPRPRPRPSKVPRP | -0.365
RRIRARPPRLPRPRPRPRCHPRP | 0.308
RRIRPRPPRLPRPRPRPSEWPRP | 0.0522
RRIRIRPPRLPRPRPRPYHTPRP | -1.25
RRIRDRPPRLPRPRPRPPFYPRP | -0.213
RRIRYRPPRLPRPRPRPRFRPRP | -0.213
RRIRLRPPRLPRPRPRPGADPRP | 0.28
RRIRSRPPRLPRPRPRPQGDPRP | 0.36
RRIRRRPPRLPRPRPRPNFTPRP | 0.205
RRIRARPPRLPRPRPRPPERPRP | 0.703
RRIRHRPPRLPRPRPRPMLEPRP | 0.0721
RRIRQRPPRLPRPRPRPEPTPRP | 0.877
RRIRWRPPRLPRPRPRPYFLPRP | -0.757
RRIRQRPPRLPRPRPRPNTIPRP | 0.0518
RRIRYRPPRLPRPRPRPFESPRP | -0.0101
RRIRPRPPRLPRPRPRPCFWPRP | 0.179
RRIRHRPPRLPRPRPRPDLGPRP | 0.0527
RRIRQRPPRLPRPRPRPKLGPRP | 0.00556
RRIRKRPPRLPRPRPRPMPCPRP | -0.0242
RRIRERPPRLPRPRPRPGYYPRP | -0.0487

Sequence | shrunken log2 fold change
RRIRNRPPRLPRPRPRPMDWPRP | -0.0484
RRIRQRPPRLPRPRPRPPPIPRP | 0.467
RRIRQRPPRLPRPRPRPMVAPRP | 0.143
RRIRNRPPRLPRPRPRPPITPRP | 0.187
RRIRIRPPRLPRPRPRPQYIPRP | -0.181
RRIRQRPPRLPRPRPRPFKPPRP | -0.0337
RRIRIRPPRLPRPRPRPFCFPRP | -0.33
RRIRIRPPRLPRPRPRPLLRPRP | -0.239
RRIRMRPPRLPRPRPRPHEWPRP | 0.624
RRIRLRPPRLPRPRPRPPFEPRP | 0.182
RRIRSRPPRLPRPRPRPDNTPRP | -0.44
RRIRHRPPRLPRPRPRPIFKPRP | -0.195
RRIRERPPRLPRPRPRPGFEPRP | -0.1
RRIRQRPPRLPRPRPRPIKCPRP | -0.00607
RRIRPRPPRLPRPRPRPSWKPRP | 0.105
RRIRIRPPRLPRPRPRPAMVPRP | -0.547
RRIRDRPPRLPRPRPRPTTTPRP | 0.654
RRIRNRPPRLPRPRPRPKYRPRP | -0.0413
RRIRSRPPRLPRPRPRPCVVPRP | -0.266
RRIRTRPPRLPRPRPRPEDLPRP | 0.0657
RRIRSRPPRLPRPRPRPNQFPRP | -0.232
RRIRDRPPRLPRPRPRPKFRPRP | 0.152
RRIRKRPPRLPRPRPRPEYEPRP | 0.0698
RRIRYRPPRLPRPRPRPYVQPRP | -1.25
RRIRLRPPRLPRPRPRPAKWPRP | 0.388

Sequence | shrunken log2 fold change
RRIRARPPRLPRPRPRPMVFPRP | 0.508
RRIRSRPPRLPRPRPRPWGNPRP | -0.236
RRIRPRPPRLPRPRPRPHHHPRP | -0.532
RRIRYRPPRLPRPRPRPSHAPRP | -0.242
RRIRFRPPRLPRPRPRPLFHPRP | -0.632
RRIRKRPPRLPRPRPRPDACPRP | 0.00649
RRIRGRPPRLPRPRPRPATPPRP | 1.83
RRIRNRPPRLPRPRPRPARDPRP | 0.27
RRIRARPPRLPRPRPRPRVYPRP | 0.441
RRIRNRPPRLPRPRPRPFYDPRP | 0.18
RRIRKRPPRLPRPRPRPLQKPRP | -0.0368
RRIRSRPPRLPRPRPRPICMPRP | 0.177
RRIRARPPRLPRPRPRPHRNPRP | 0.192
RRIRNRPPRLPRPRPRPYHIPRP | -0.366
RRIRTRPPRLPRPRPRPKFNPRP | -0.375
RRIRSRPPRLPRPRPRPNYKPRP | -0.546
RRIRGRPPRLPRPRPRPDEIPRP | -0.0447
RRIRTRPPRLPRPRPRPWGCPRP | -0.151
RRIRERPPRLPRPRPRPQNMPRP | -1.05
RRIRCRPPRLPRPRPRPSTPPRP | -0.382
RRIRKRPPRLPRPRPRPMNWPRP | 0.134
RRIRSRPPRLPRPRPRPNYYPRP | -0.822
RRIRKRPPRLPRPRPRPDMIPRP | 0.013
RRIRERPPRLPRPRPRPYKNPRP | -0.756
RRIRFRPPRLPRPRPRPRESPRP | 0.45

Sequence | shrunken log2 fold change
RRIRRRPPRLPRPRPRPWMRPRP | 0.172
RRIRGRPPRLPRPRPRPTADPRP | 2.65
RRIRIRPPRLPRPRPRPTWAPRP | 0.0207
RRIRWRPPRLPRPRPRPWREPRP | -0.0969
RRIRDRPPRLPRPRPRPHTGPRP | -0.0359
RRIRFRPPRLPRPRPRPDPNPRP | -0.072
RRIRKRPPRLPRPRPRPIEMPRP | -0.202
RRIRLRPPRLPRPRPRPQPYPRP | -0.487
RRIRDRPPRLPRPRPRPFEPPRP | -0.057
RRIRHRPPRLPRPRPRPHKGPRP | -0.277
RRIRWRPPRLPRPRPRPMTNPRP | -0.0531
RRIRYRPPRLPRPRPRPFITPRP | -0.709
RRIRNRPPRLPRPRPRPGSKPRP | 0.00175
RRIRARPPRLPRPRPRPKSQPRP | 0.286
RRIRSRPPRLPRPRPRPLIEPRP | -0.06
RRIRDRPPRLPRPRPRPELIPRP | 0.0219
RRIRQRPPRLPRPRPRPFTAPRP | -0.183
RRIRCRPPRLPRPRPRPCAEPRP | 0.0802
RRIRSRPPRLPRPRPRPRESPRP | 0.092
RRIRGRPPRLPRPRPRPLHCPRP | 0.188
RRIRGRPPRLPRPRPRPKPLPRP | 0.375
RRIRIRPPRLPRPRPRPCNRPRP | -0.425
RRIRVRPPRLPRPRPRPSWHPRP | -0.00555
RRIRKRPPRLPRPRPRPKCAPRP | 0.283
RRIRARPPRLPRPRPRPNYGPRP | -0.24

From the supplement of paper PMC9112550, “Optimization of the antimicrobial peptide Bac7 by deep mutational scanning” (BMC Biology, 2022)
